Assays:
[1] = target: GluCl-EGFP (Caenorhabditis elegans glutamate-gated chloride channel, EGFP gene fusion) (Caenorhabditis elegans) (UniProt G5EBR3); test: SEC
SEC = target: the molecule itself; test: SEC

GluCl-EGFP (Caenorhabditis elegans glutamate-gated chloride channel, EGFP gene fusion), sequence (G5EBR3 21-461): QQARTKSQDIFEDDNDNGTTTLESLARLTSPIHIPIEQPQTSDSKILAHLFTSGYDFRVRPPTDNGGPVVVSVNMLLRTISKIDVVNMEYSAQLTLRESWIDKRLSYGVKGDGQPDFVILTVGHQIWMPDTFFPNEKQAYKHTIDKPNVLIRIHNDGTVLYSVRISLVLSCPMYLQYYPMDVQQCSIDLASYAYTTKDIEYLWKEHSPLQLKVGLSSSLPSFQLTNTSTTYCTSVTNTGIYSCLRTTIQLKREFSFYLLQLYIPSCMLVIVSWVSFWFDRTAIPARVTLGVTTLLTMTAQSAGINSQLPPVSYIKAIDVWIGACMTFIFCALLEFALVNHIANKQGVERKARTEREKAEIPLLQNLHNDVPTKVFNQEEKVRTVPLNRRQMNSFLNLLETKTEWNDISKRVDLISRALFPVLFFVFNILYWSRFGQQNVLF

Molecule | stoichiometry N [1] | stoichiometry N (SEC)
GluCl-EGFP (Caenorhabditis elegans glutamate-gated chloride channel, EGFP gene fusion) (from UniProt G5EBR3 21-461) (natural protein) | 5 | –
cASIC463 (chicken acid-sensing ion channel 1a truncated 64 residues from the carboxy terminus), N-terminal eGFP tagged (domain or fragment, Gallus gallus, UniProt Q1XA76 1-463, looked up) MMDLKVDEEEVDSGQPVSIQAFASSSTLHGISHIFSYERLSLKRVVWALCFMGSLALLALVCTNRIQYYFLYPHVTKLDEVAATRLTFPAVTFCNLNEFRFSRVTKNDLYHAGELLALLNNRYEIPDTQTADEKQLEILQDKANFRNFKPKPFNMLEFYDRAGHDIREMLLSCFFRGEQCSPEDFKVVFTRYGKCYTFNAGQDGKPRLITMKGGTGNGLEIMLDIQQDEYLPVWGETDETSFEAGIKVQIHSQDEPPLIDQLGFGVAPGFQTFVSCQEQRLIYLPPPWGDCKATTGDSEFYDTYSITACRIDCETRYLVENCNCRMVHMPGDAPYCTPEQYKECADPALDFLVEKDNEYCVCEMPCNVTRYGKELSMVKIPSKASAKYLAKKYNKSEQYIGENILVLDIFFEALNYETIEQKKAYEVAGLLGDIGGQMGLFIGASILTVLELFDYAYEVIKHR | – | 3

From PMC4291175 (Nature protocols, 2014)
